Values of other authors in PMC8671346.
pKd: −log10 of the molar value.

What was measured:
[1] = biological target: GM-CSF receptor (GMRα/βc) (Homo sapiens) (UniProt P15509)
[2] = biological target: GM-CSF receptor alpha chain (GMRα) (Homo sapiens) (UniProt P15509)

pKd [1]: 10.00
pKd [2]: 8.30
Substance: GM-CSF (from UniProt P04141)
